Consider four molecules from patent publication US20160102129A1 (Novo Nordisk, published 2016).

*1 amine or outer side, *2 acyl side, *3 side chain or, on linkers, in order; H or OH if unused. Side-chain parts run from the residue outwards. [ ]: non-standard residue; d: D form. The star is where a group is joined. C18 diacid = O=C(O)CCCCCCCCCCCCCCCCC(=O)*; γGlu = O=C(O)[C@H](CCC(=O)[*:2])N[*:1]; Desaminohistidyl = O=C(CCc1c[nH]cn1)*; Ac4c = NC1(C(=O)O)CCC1; Aib = CC(C)(N)C(=O)O

Sequences and labels used below:
B1: N^ε34-[2-[[(2S)-2-[[(4S)-4-carboxy-4-[[(4S)-4-carboxy-4-(17-carboxyheptadecanoylamino)butanoyl]amino]butanoyl]amino]-3-hydroxypropanoyl]amino]acetyl]-[Imp7,Aib8 … (peptide)
peptide: [Desaminohistidyl][Aib]HGTFTSDVSKYLEEQAAREFIAWLLK([Gly-Ser-γGlu-γGlu-C18 diacid])T-NH2
SMILES: CC[C@H](C)[C@H](NC(=O)[C@H](Cc1ccccc1)NC(=O)[C@H](CCC(=O)O)NC(=O)[C@H](CCCNC(=N)N)NC(=O)[C@H](C)NC(=O)[C@H](C)NC(=O)[C@H](CCC(N)=O)NC(=O)[C@H](CCC(=O)O)NC(=O)[C@H](CCC(=O)O)NC(=O)[C@H](CC(C)C)NC(=O)[C@H](Cc1ccc(O)cc1)NC(=O)[C@H](CCCCN)NC(=O)[C@H](CO)NC(=O)[C@@H](NC(=O)[C@H](CC(=O)O)NC(=O)[C@H](CO)NC(=O)[C@@H](NC(=O)[C@H](Cc1ccccc1)NC(=O)[C@@H](NC(=O)CNC(=O)[C@H](Cc1c[nH]cn1)NC(=O)C(C)(C)NC(=O)CCc1c[nH]cn1)[C@@H](C)O)[C@@H](C)O)C(C)C)C(=O)N[C@@H](C)C(=O)N[C@@H](Cc1c[nH]c2ccccc12)C(=O)N[C@@H](CC(C)C)C(=O)N[C@@H](CC(C)C)C(=O)N[C@@H](CCCCNC(=O)CNC(=O)[C@H](CO)NC(=O)CC[C@H](NC(=O)CC[C@H](NC(=O)CCCCCCCCCCCCCCCCC(=O)O)C(=O)O)C(=O)O)C(=O)N[C@H](C(N)=O)[C@@H](C)O
B2: N^ε34-[2-[2-[2-[[2-[2-[2-[[(4S)-4-carboxy-4-[[(4S)-4-carboxy-4-(17-carboxyheptadecanoylamino)butanoyl]amino]butanoyl]amino]ethoxy]ethoxy]acetyl]amino]ethoxy]eth … (peptide)
peptide: [Desaminohistidyl][Aib]HGTFTSDVSKYLEEQAAREFIAWLLK([Ado-Ado-γGlu-γGlu-C18 diacid])T-NH2
B3: N^ε34-[(4S)-4-carboxy-4-[[(4S)-4-carboxy-4-[[(4S)-4-carboxy-4-[[(4S)-4-carboxy-4-(17-carboxyheptadecanoylamino)butanoyl]amino]butanoyl]amino]butanoyl]amino]buta … (peptide)
peptide: [Desaminohistidyl][Aib]HGTFTSDVSKYLEEQAAREFIAWLLK([γGlu-γGlu-γGlu-γGlu-C18 diacid])T-NH2
SMILES: CC[C@H](C)[C@H](NC(=O)[C@H](Cc1ccccc1)NC(=O)[C@H](CCC(=O)O)NC(=O)[C@H](CCCNC(=N)N)NC(=O)[C@H](C)NC(=O)[C@H](C)NC(=O)[C@H](CCC(N)=O)NC(=O)[C@H](CCC(=O)O)NC(=O)[C@H](CCC(=O)O)NC(=O)[C@H](CC(C)C)NC(=O)[C@H](Cc1ccc(O)cc1)NC(=O)[C@H](CCCCN)NC(=O)[C@H](CO)NC(=O)[C@@H](NC(=O)[C@H](CC(=O)O)NC(=O)[C@H](CO)NC(=O)[C@@H](NC(=O)[C@H](Cc1ccccc1)NC(=O)[C@@H](NC(=O)CNC(=O)[C@H](Cc1c[nH]cn1)NC(=O)C(C)(C)NC(=O)CCc1c[nH]cn1)[C@@H](C)O)[C@@H](C)O)C(C)C)C(=O)N[C@@H](C)C(=O)N[C@@H](Cc1c[nH]c2ccccc12)C(=O)N[C@@H](CC(C)C)C(=O)N[C@@H](CC(C)C)C(=O)N[C@@H](CCCCNC(=O)CC[C@H](NC(=O)CC[C@H](NC(=O)CC[C@H](NC(=O)CC[C@H](NC(=O)CCCCCCCCCCCCCCCCC(=O)O)C(=O)O)C(=O)O)C(=O)O)C(=O)O)C(=O)N[C@H](C(N)=O)[C@@H](C)O
B4: N^ε34-[2-[[(2S)-2-[[(2S)-4-carboxy-2-[[2-[[(2S)-2-[[(4S)-4-carboxy-4-[[(4S)-4-carboxy-4-(17-carboxyheptadecanoylamino)butanoyl]amino]butanoyl]amino]-3-hydroxypr … (peptide)
peptide: [Desaminohistidyl][Ac4c]HGTFTSDVSKYLEEQAAREFIAWLLK([Gly-Ser-Glu-Gly-Ser-γGlu-γGlu-C18 diacid])T-NH2

The first test has as its target T1, human GLP-1 receptor (human, UniProt P43220 24-463).
T1 construct: whole, on cells; reporter assay on whole cells
Briefly: SPA displacement of [125I]GLP-1(7-36)NH2 from hGLP-1R BHK membranes. In general terms: Loss of bound radioactivity is the signal in a displacement assay; it reports binding, not function.
One may read the IC50 as the point on the concentration scale where inhibition reaches its midpoint. A higher IC50 goes with weaker potency in that assay. B1 showed an IC50 of 0.2 nM.

Consider B2, for which the IC50 amounted to 0.5 nM.

B3: the IC50 was found to be 0.3 nM.

For the molecule B4, the IC50 was determined as 0.1 nM.

The target in the next test is T1, human GLP-1 receptor. Briefly: cell-based or functional assay.
As to B1, the “EC50 GLP-1R [pM], CRE luciferase reporter gene assay” value (“EC50 GLP-1R [pM]” for short) came to 7 pM.

With B2, the “EC50 GLP-1R [pM]” value is 5.2 pM.

Take B3: the “EC50 GLP-1R [pM]” value was 7 pM.

Consider B4, for which the “EC50 GLP-1R [pM]” value amounted to 5 pM.

The target in a further test is T2, human glucagon receptor (human, UniProt P47871 26-477). Briefly: cell-based or functional assay.
T2 sequence (P47871 26-477): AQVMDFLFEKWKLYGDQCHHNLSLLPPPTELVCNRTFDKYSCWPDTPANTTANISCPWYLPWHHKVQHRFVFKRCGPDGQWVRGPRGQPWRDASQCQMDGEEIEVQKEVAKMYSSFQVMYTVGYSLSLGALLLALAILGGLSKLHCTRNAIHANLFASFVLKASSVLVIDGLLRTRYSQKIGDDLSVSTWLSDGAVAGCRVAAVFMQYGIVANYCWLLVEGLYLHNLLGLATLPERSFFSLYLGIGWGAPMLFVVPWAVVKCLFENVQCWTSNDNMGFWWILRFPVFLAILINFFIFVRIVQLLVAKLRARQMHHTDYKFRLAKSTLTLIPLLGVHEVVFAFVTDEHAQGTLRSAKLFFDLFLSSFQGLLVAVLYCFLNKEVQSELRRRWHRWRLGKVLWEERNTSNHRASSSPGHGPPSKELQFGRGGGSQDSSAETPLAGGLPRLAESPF
With B1, the “EC50 GlucagonR [pM], CRE luciferase reporter gene assay” value (“EC50 GlucagonR [pM]” below) was 45 pM.

Regarding B2, the “EC50 GlucagonR [pM]” value came to 120 pM.

With B3, the “EC50 GlucagonR [pM]” value worked out at 44 pM.

Regarding B4, the “EC50 GlucagonR [pM]” value stood at 40 pM.

The next test concerns the target T2, human glucagon receptor. Briefly: SPA displacement of [125I]-glucagon from human glucagon receptor BHK membranes.
With B1, the IC50 worked out at 4.3 nM.

As for B2, the IC50 worked out at 4.3 nM.

Molecule B3 registered an IC50 of 4.2 nM.

In the case of B4, the IC50 was found to be 4.1 nM.
